Assay results taken from patent publication US20200123221A1 (IMMATICS BIOTECHNOLOGIES, published 2020).

B1: TCR R16P1E8 (TCR, V domains shown)
V domain 1: QKEVEQDPGPLSVPEGAIVSLNCTYSNSAFQYFMWYRQYSRKGPELLMYTYSSGNKEDGRFTAQVDKSSKYISLFIRDSQPSDSATYLCAMSEAAGNKLTFGGGTRVLVKP
V domain 2: EAGVAQSPRYKIIEKRQSVAFWCNPISGHATLYWYQQILGQGPKLLIQFQNNGVVDDSQLPKDRFSAERLKGVDSTLKIQPAKLEDSAVYLCASSYTNQGEAFFGQGTRLTVVE
B2: TCR R17P1D7 (TCR, V domains shown)
V domain 1: QTVTQSQPEMSVQEAETVTLSCTYDTSESDYYLFWYKQPPSRQMILVIRQEAYKQQNATENRFSVNFQKAAKSFSLKISDSQLGDAAMYFCAYRWAQGGSEKLVFGKGTKLTVNP
V domain 2: DIYQTPRYLVIGTGKKITLECSQTMGHDKMYWYQQDPGMELHLIHYSYGVNSTEKGDLSSESTVSRIRTEHFPLTLESARPSHTSQYLCATELWSSGGTGELFFGEGSRLTVLE

Molecular target: HLA-A*02-presented PRAME-004 (SEQ ID NO:97)
Test: cell-based or functional assay

Binder | EC50 of IFNγ release from CD8+ T-cells with the TCR, T2 target cells loaded with PRAME-004 from 10 µM to 10 pM
B1 | ~1 µM
B2 | 1.83 nM
